System: Escherichia coli TOP10
Experiment: shrunken log2 fold change of peptide-encoding DNA abundance (4.5 h post-induction vs induction); higher = less antimicrobial activity (less host growth inhibition)
Settings: time post-induction: 4.5 h; library: site-saturation at positions 5, 18, 19, 20
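Also: peptides expressed intracellularly from a pBAD plasmid library in pooled LB shake-flask culture, induced with 0.3% L-arabinose, DNA abundance read by NGS, three biological replicates, DESeq2 with apeglm shrinkage.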

Sequence | shrunken log2 fold change
RRIRDRPPRLPRPRPRPEHGPRP | 0.0582
RRIRLRPPRLPRPRPRPIWDPRP | -0.0847
RRIRPRPPRLPRPRPRPRILPRP | 0.0605
RRIRARPPRLPRPRPRPVNLPRP | 0.0654
RRIRKRPPRLPRPRPRPLTNPRP | -0.0294
RRIRPRPPRLPRPRPRPKRKPRP | 0.238
RRIRPRPPRLPRPRPRPLMFPRP | -0.138
RRIRTRPPRLPRPRPRPCACPRP | 0.0169
RRIRNRPPRLPRPRPRPGKPPRP | -0.117
RRIRHRPPRLPRPRPRPTIIPRP | -0.494
RRIRERPPRLPRPRPRPKTNPRP | -0.293
RRIRIRPPRLPRPRPRPDMQPRP | -0.0983
RRIRMRPPRLPRPRPRPGCLPRP | 0.503
RRIRPRPPRLPRPRPRPLIAPRP | 0.113
RRIRNRPPRLPRPRPRPHSVPRP | -0.015
RRIRCRPPRLPRPRPRPQCGPRP | -0.609
RRIRYRPPRLPRPRPRPSGYPRP | -0.714
RRIRQRPPRLPRPRPRPEVPPRP | -0.00133
RRIRCRPPRLPRPRPRPNETPRP | -0.0198
RRIRCRPPRLPRPRPRPTGTPRP | 0.0453
RRIRFRPPRLPRPRPRPRSSPRP | 0.12
RRIRIRPPRLPRPRPRPCKIPRP | -0.293
RRIRTRPPRLPRPRPRPHKLPRP | -0.236
RRIRWRPPRLPRPRPRPVHNPRP | -0.152
RRIRMRPPRLPRPRPRPVIMPRP | -0.101

Sequence | shrunken log2 fold change
RRIRPRPPRLPRPRPRPFWCPRP | -0.0114
RRIRGRPPRLPRPRPRPEYDPRP | 0.0795
RRIRPRPPRLPRPRPRPCLTPRP | -0.0809
RRIRTRPPRLPRPRPRPEYLPRP | -0.0156
RRIRLRPPRLPRPRPRPDPMPRP | -0.00264
RRIRARPPRLPRPRPRPDYRPRP | 0.0573
RRIRHRPPRLPRPRPRPFGEPRP | -0.0377
RRIRARPPRLPRPRPRPIYAPRP | 0.144
RRIRARPPRLPRPRPRPYKLPRP | -0.467
RRIRIRPPRLPRPRPRPEEGPRP | -0.05
RRIRSRPPRLPRPRPRPLTNPRP | -0.101
RRIRFRPPRLPRPRPRPHIPPRP | -0.289
RRIRGRPPRLPRPRPRPPMGPRP | 0.59
RRIRMRPPRLPRPRPRPTDNPRP | 0.188
RRIRDRPPRLPRPRPRPQTKPRP | -0.115
RRIRVRPPRLPRPRPRPVRKPRP | 0.274
RRIRLRPPRLPRPRPRPDAIPRP | 0.0952
RRIRSRPPRLPRPRPRPQQGPRP | 0.162
RRIRPRPPRLPRPRPRPLWCPRP | -0.158
RRIRCRPPRLPRPRPRPGRQPRP | 0.285
RRIRHRPPRLPRPRPRPCALPRP | -0.339
RRIRYRPPRLPRPRPRPQRPPRP | 0.376
RRIRERPPRLPRPRPRPQYLPRP | -0.0574
RRIRTRPPRLPRPRPRPQSMPRP | 0.13
RRIRDRPPRLPRPRPRPACEPRP | 0.58

Sequence | shrunken log2 fold change
RRIRSRPPRLPRPRPRPVQDPRP | 0.339
RRIRKRPPRLPRPRPRPGGHPRP | 0.0505
RRIRRRPPRLPRPRPRPGTEPRP | 0.443
RRIRYRPPRLPRPRPRPFNFPRP | -0.771
RRIRYRPPRLPRPRPRPFDTPRP | -1.81
RRIRNRPPRLPRPRPRPFVWPRP | -0.0187
RRIRQRPPRLPRPRPRPTAPPRP | 0.0785
RRIRYRPPRLPRPRPRPLMHPRP | -1.02
RRIRERPPRLPRPRPRPFMHPRP | -0.121
RRIRVRPPRLPRPRPRPGPAPRP | 0.407
RRIRSRPPRLPRPRPRPGTSPRP | -0.167
RRIRMRPPRLPRPRPRPWVMPRP | -0.022
RRIRGRPPRLPRPRPRPHRHPRP | 0.107
RRIRKRPPRLPRPRPRPCKFPRP | 0.142
RRIRMRPPRLPRPRPRPNDPPRP | -0.516
RRIRCRPPRLPRPRPRPKRRPRP | 0.0984
RRIRQRPPRLPRPRPRPPETPRP | 0.00852
RRIRYRPPRLPRPRPRPNAWPRP | -0.165
RRIRQRPPRLPRPRPRPPFEPRP | 0.333
RRIRMRPPRLPRPRPRPDLNPRP | 0.178
RRIRGRPPRLPRPRPRPGECPRP | 0.959
RRIRHRPPRLPRPRPRPKLWPRP | 0.392
RRIRDRPPRLPRPRPRPWTMPRP | -0.0209
RRIRCRPPRLPRPRPRPQVRPRP | -0.236
RRIRHRPPRLPRPRPRPLCVPRP | 2.97

Sequence | shrunken log2 fold change
RRIRLRPPRLPRPRPRPAWFPRP | 0.103
RRIRNRPPRLPRPRPRPIVDPRP | -0.139
RRIRVRPPRLPRPRPRPHIFPRP | -0.547
RRIRNRPPRLPRPRPRPEKRPRP | -0.0252
RRIRFRPPRLPRPRPRPKLNPRP | -0.193
RRIRNRPPRLPRPRPRPFMRPRP | 0.269
RRIRPRPPRLPRPRPRPVHCPRP | 0.046
RRIRLRPPRLPRPRPRPWYEPRP | 0.0242
RRIRQRPPRLPRPRPRPLEKPRP | -0.0015
RRIRGRPPRLPRPRPRPFAPPRP | 1
RRIRFRPPRLPRPRPRPMIYPRP | -0.441
RRIRKRPPRLPRPRPRPWECPRP | 0.033
RRIRVRPPRLPRPRPRPIMGPRP | 0.0179
RRIRWRPPRLPRPRPRPFIQPRP | -0.437
RRIRGRPPRLPRPRPRPHWRPRP | 0.203
RRIRMRPPRLPRPRPRPNWRPRP | 0.0183
RRIRLRPPRLPRPRPRPACVPRP | 0.131
RRIRWRPPRLPRPRPRPKGHPRP | 0.108
RRIRKRPPRLPRPRPRPLQWPRP | 0.0701
RRIRRRPPRLPRPRPRPNTMPRP | -0.262
RRIRCRPPRLPRPRPRPNKCPRP | -0.279
RRIRIRPPRLPRPRPRPLWSPRP | -0.245
RRIRLRPPRLPRPRPRPFMKPRP | -0.222
RRIRRRPPRLPRPRPRPPNDPRP | 0.605
RRIRQRPPRLPRPRPRPTPRPRP | 0.843

Sequence | shrunken log2 fold change
RRIRHRPPRLPRPRPRPAGCPRP | 0.242
RRIRRRPPRLPRPRPRPELCPRP | 0.101
RRIRHRPPRLPRPRPRPSDLPRP | -0.441
RRIRARPPRLPRPRPRPKSWPRP | 0.89
RRIRYRPPRLPRPRPRPPGDPRP | 0.152
RRIRRRPPRLPRPRPRPIEPPRP | -0.015
RRIRIRPPRLPRPRPRPWEFPRP | -0.000856
RRIRRRPPRLPRPRPRPITCPRP | -0.307
RRIRYRPPRLPRPRPRPGKTPRP | -0.0233
RRIRRRPPRLPRPRPRPGAIPRP | 0.179
RRIRCRPPRLPRPRPRPGCRPRP | 0.569
RRIRARPPRLPRPRPRPYCPPRP | -0.585
RRIRQRPPRLPRPRPRPPSGPRP | 0.352
RRIRWRPPRLPRPRPRPFCDPRP | 0.189
RRIRWRPPRLPRPRPRPQSYPRP | -0.0988
RRIRIRPPRLPRPRPRPGAQPRP | -0.0304
RRIRTRPPRLPRPRPRPHMWPRP | -0.302
RRIRGRPPRLPRPRPRPHQRPRP | 0.23
RRIRHRPPRLPRPRPRPDRTPRP | 0.0869
RRIRWRPPRLPRPRPRPHEEPRP | 0.0119
RRIRPRPPRLPRPRPRPLYAPRP | 0.0267
RRIRRRPPRLPRPRPRPRFCPRP | 0.421
RRIRNRPPRLPRPRPRPLAYPRP | -0.175
RRIRERPPRLPRPRPRPSDKPRP | -0.982
RRIRTRPPRLPRPRPRPGTQPRP | -0.036
